The subject of data set [1] is HeLa Kyoto. Description: melting temperature (median over replicates), in situ; higher = more thermally stable.
Data set [2] deals with HeLa Kyoto. Briefly: thermal stability score vs G1/S (z-score of summed log2 fold changes over temperatures); higher = more thermally stable than in G1/S.
Data set [3] concerns HeLa Kyoto. Briefly: solubility change mitosis vs G1/S (difference of NP-40 vs SDS log2 ratios) (log2 ratio difference); higher = more soluble in mitosis.
For data set [4], the system named is HeLa Kyoto. Description: solubility in G1/S (NP-40 vs SDS abundance) (log2 ratio); higher = more soluble. As to conditions: cell cycle stage: G1/S.
Where [5] appears, read: cell cycle stage: early G1 (4.5 h after nocodazole release).

Experimental findings from the supplement of paper PMC5998384 are described below.
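For melting temperature (median over replicates), in situ in this document: HeLa Kyoto cells synchronized by double thymidine or nocodazole block, proteins quantified by TMT10plex mass spectrometry, three independent biological replicates.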
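For solubility change mitosis vs G1/S (difference of NP-40 vs SDS log2 ratios) in this document: synchronized HeLa Kyoto cells (double thymidine block for G1/S, nocodazole release for mitosis), protein amounts in NP-40 versus SDS lysates quantified by mass spectrometry, three biological replicates.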
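For solubility in G1/S (NP-40 vs SDS abundance) in this document: HeLa Kyoto cells arrested at G1/S by double thymidine block, proteins quantified by TMT10plex mass spectrometry in mild NP-40 versus SDS extracts, three biological replicates.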
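For thermal stability score vs G1/S (z-score of summed log2 fold changes over temperatures) in this document: synchronized HeLa Kyoto cells, proteins quantified by TMT10plex mass spectrometry, three biological replicates, mitosis taken 0.5 h after nocodazole release, G1/S directly after double thymidine block.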

Turning to “MAAVWQQVLAVDARYNAYRTPTFPQFRTQYIRRRSQLLRENAKAGHPPALRRQYLRLRGQLLGQRYGPLSEPGSARAYSNSIVRSSRTTLDRMEDFEDDPRALGARGHRRSVSRGSYQLQAQMNRAVYEDRPPGSVVPTSAAEASRAMAGDTSLSENYAFAGMYHVFDQHVDEAVPRVRFANDDRHRLACCSLDGSISLCQLVPAPPTVLRVLRGHTRGVSDFAWSLSNDILVSTSLDATMRIWASEDGRCIREIPDPDSAELLCCTFQPVNNNLTVVGNAKHNVHVMNISTGKKVKGGSSKLTGRVLALSFDAPGRLLWAGDDRGSVFSFLFDMATGKLTKAKRLVVHEGSPVTSISARSWVSREARDPSLLINACLNKLLLYRVVDNEGTLQLKRSFPIEQSSHPVRSIFCPLMSFRQGACVVTGSEDMCVHFFDVERAAKAAVNKLQGHSAPVLDVSFNCDESLLASSDASGMVIVWRREQK [WDR13]”, the melting temperature in data set [1] (cell cycle stage: G1/S) worked out at 53.2 °C; in data set [1] (cell cycle stage: mitosis), 53 °C. Besides, the thermal stability score turned out to be 0.118 in data set [2] (setting [5]) and 0.204 in data set [2] (cell cycle stage: mitosis). For the same sequence, the “solubility change mitosis (log2)” value in data set [3] is -0.174. Besides, in data set [4], the “solubility in G1/S (log2)” value is 0.0237.
On to “MAAWKSWTALRLCATVVVLDMVVCKGFVEDLDESFKENRNDDIWLVDFYAPWCGHCKKLEPIWNEVGLEMKSIGSPVKVGKMDATSYSSIASEFGVRGYPTIKLLKGDLAYNYRGPRTKDDIIEFAHRVSGALIRPLPSQQMFEHMQKRHRVFFVYVGGESPLKEKYIDAASELIVYTYFFSASEEVVPEYVTLKEMPAVLVFKDETYFVYDEYEDGDLSSWINRERFQNYLAMDGFLLYELGDTGKLVALAVIDEKNTSVEHTRLKSIIQEVARDYRDLFHRDFQFGHMDGNDYINTLLMDELTVPTVVVLNTSNQQYFLLDRQIKNVEDMVQFINNILDGTVEAQGGDSILQRLKRIVFDAKSTIVSIFKSSPLMGCFLFGLPLGVISIMCYGIYTADTDGGYIEERYEVSKSENENQEQIEESKEQQEPSSGGSVVPTVQEPKDVLEKKKD [TMX3]”, for which the melting temperature in data set [1] (cell cycle stage: G1/S) came to 54.5 °C; in data set [1] (cell cycle stage: mitosis), 54.3 °C. Further, the thermal stability score in data set [2] (setting [5]) was 0.827; in data set [2] (cell cycle stage: mitosis), 3.44. For the same sequence, the “solubility change mitosis (log2)” value in data set [3] was -0.0543. The “solubility in G1/S (log2)” value in data set [4] is 0.2.
For the sequence “MAAYSYRPGPGAGPGPAAGAALPDQSFLWNVFQRVDKDRSGVISDTELQQALSNGTWTPFNPVTVRSIISMFDRENKAGVNFSEFTGVWKYITDWQNVFRTYDRDNSGMIDKNELKQALSGFGYRLSDQFHDILIRKFDRQGRGQIAFDDFIQGCIVLQRLTDIFRRYDTDQDGWIQVSYEQYLSMVFSIV [PDCD6]”, the melting temperature turned out to be 49.3 °C in data set [1] (cell cycle stage: G1/S) and 50.5 °C in data set [1] (cell cycle stage: mitosis). In addition, the thermal stability score in data set [2] (setting [5]) turned out to be 2.71; in data set [2] (cell cycle stage: mitosis), 2.81. For the same sequence, the “solubility change mitosis (log2)” value in data set [3] was determined as 0.26. For the same sequence, the “solubility in G1/S (log2)” value in data set [4] was 0.15.
For “MACGFRRAIACQLSRVLNLPPENLITSISAVPISQKEEVADFQLSVDSLLEKDNDHSRPDIQVQAKRLAEKLRCDTVVSEISTGQRTVNFKINRELLTKTVLQQVIEDGSKYGLKSELFSGLPQKKIVVEFSSPNVAKKFHVGHLRSTIIGNFIANLKEALGHQVIRINYLGDWGMQFGLLGTGFQLFGYEEKLQSNPLQHLFEVYVQVNKEAADDKSVAKAAQEFFQRLELGDVQALSLWQKFRDLSIEEYIRVYKRLGVYFDEYSGESFYREKSQEVLKLLESKGLLLKTIKGTAVVDLSGNGDPSSICTVMRSDGTSLYATRDLAAAIDRMDKYNFDTMIYVTDKGQKKHFQQVFQMLKIMGYDWAERCQHVPFGVVQGMKTRRGDVTFLEDVLNEIQLRMLQNMASIKTTKELKNPQETAERVGLAALIIQDFKGLLLSDYKFSWDRVFQSRGDTGVFLQYTHARLHSLEETFGCGYLNDFNTACLQEPQSVSILQHLLRFDEVLYKSSQDFQPRHIVSYLLTLSHLAAVAHKTLQIKDSPPEVAGARLHLFKAVRSVLANGMKLLGITPVCRM [RARS2]”, the melting temperature was determined as 51.7 °C in data set [1] (cell cycle stage: G1/S) and 50.8 °C in data set [1] (cell cycle stage: mitosis). The thermal stability score in data set [2] (setting [5]) and in data set [2] (cell cycle stage: mitosis) was -0.261 throughout. For the same sequence, the “solubility change mitosis (log2)” value in data set [3] is -0.141. For the same sequence, the “solubility in G1/S (log2)” value in data set [4] was -0.144.
Turning to “MACSIVQFCYFQDLQAARDFLFPHLREEILSGALRRDPSKSTDWEDDGWGAWEENEPQEPEEEGNTCKTQKTSWLQDCVLSLSPTNDLMVIAREQKAVFLVPKWKYSDKGKEEMQFAVGWSGSLNVEEGECVTSALCIPLASQKRSSTGRPDWTCIVVGFTSGYVRFYTENGVLLLAQLLNEDPVLQLKCRTYEIPRHPGVTEQNEELSILYPAAIVTIDGFSLFQSLRACRNQVAKAAASGNENIQPPPLAYKKWGLQDIDTIIDHASVGIMTLSPFDQMKTASNIGGFNAAIKNSPPAMSQYITVGSNPFTGFFYALEGSTQPLLSHVALAVASKLTSALFNAASGWLGWKSKHEEEAVQKQKPKVEPATPLAVRFGLPDSRRHGESICLSPCNTLAAVTDDFGRVILLDVARGIAIRMWKGYRDAQIGWIQTVEDLHERVPEKADFSPFGNSQGPSRVAQFLVIYAPRRGILEVWSTQQGPRVGAFNVGKHCRLLYPGYKIMGLNNVTSQSWQPQTYQICLVDPVSGSVKTVNVPFHLALSDKKSERAKDMHLVKKLAALLKTKSPNLDLVETEIKELILDIKYPATKKQALESILASERLPFSCLRNITQTLMDTLKSQELESVDEGLLQFCANKLKLLQLYESVSQLNSLDFHLDTPFSDNDLALLLRLDEKELLKLQALLEKYKQENTRTNVRFSDDKDGVLPVKTFLEYLEYEKDVLNIKKISEEEYVALGSFFFWKCLHGESSTEDMCHTLESAGLSPQLLLSLLLSVWLSKEKDILDKPQSICCLHTMLSLLSKMKVAIDETWDSQSVSPWWQQMRTACIQSENNGAALLSAHVGHSVAAQISNNMTEKKFSQTVLGADSEALTDSWEALSLDTEYWKLLLKQLEDCLILQTLLHSKGNTQTSKVSSLQAEPLPRLSVKKLLEGGKGGIADSVAKWIFKQDFSPEVLKLANEERDAENPDEPKEGVNRSFLEVSEMEMDLGAIPDLLHLAYEQFPCSLELDVLHAHCCWEYVVQWNKDPEEARFFVRSIEHLKQIFNAHVQNGIALMMWNTFLVKRFSAATYLMDKVGKSPKDRLCRRDVGMSDTAMTSFLGSCLDLLQILMEADVSRDEIQVPVLDTEDAWLSVEGPISIVELALEQKHIHYPLVEHHSILCSILYAVMRFSLKTVKPLSLFDSKGKNAFFKDLTSIQLLPSGEMDPNFISVRQQFLLKVVSAAVQAQHSATKVKDPTEEATPTPFGKDQDWPALAVDLAHHLQVSEDVVRRHYVGELYNYGVDHLGEEAILQVHDKEVLASQLLVLTGQRLAHALLHTQTKEGMELLARLPPTLCTWLKAMDPQDLQNTEVPIATTAKLVNKVIELLPEKHGQYGLALHLIEAVEAISLPSL [RAB3GAP2]”, the melting temperature came to 48.7 °C in data set [1] (cell cycle stage: G1/S) and 49.2 °C in data set [1] (cell cycle stage: mitosis). The thermal stability score in data set [2] (setting [5]) was 1.1; in data set [2] (cell cycle stage: mitosis), 1.85. Besides, the “solubility change mitosis (log2)” value in data set [3] is -0.143. Also, in data set [4], the “solubility in G1/S (log2)” value came out at 0.0196.
